# Publication PMC12362098, “Dimerization of Cdc13 is essential for dynamic DNA exchange on telomeric DNA” (The Journal of Biological Chemistry, 2025)
# T1: Cdc13 WT (Saccharomyces cerevisiae, UniProt P32797 1-924)
# T1 sequence: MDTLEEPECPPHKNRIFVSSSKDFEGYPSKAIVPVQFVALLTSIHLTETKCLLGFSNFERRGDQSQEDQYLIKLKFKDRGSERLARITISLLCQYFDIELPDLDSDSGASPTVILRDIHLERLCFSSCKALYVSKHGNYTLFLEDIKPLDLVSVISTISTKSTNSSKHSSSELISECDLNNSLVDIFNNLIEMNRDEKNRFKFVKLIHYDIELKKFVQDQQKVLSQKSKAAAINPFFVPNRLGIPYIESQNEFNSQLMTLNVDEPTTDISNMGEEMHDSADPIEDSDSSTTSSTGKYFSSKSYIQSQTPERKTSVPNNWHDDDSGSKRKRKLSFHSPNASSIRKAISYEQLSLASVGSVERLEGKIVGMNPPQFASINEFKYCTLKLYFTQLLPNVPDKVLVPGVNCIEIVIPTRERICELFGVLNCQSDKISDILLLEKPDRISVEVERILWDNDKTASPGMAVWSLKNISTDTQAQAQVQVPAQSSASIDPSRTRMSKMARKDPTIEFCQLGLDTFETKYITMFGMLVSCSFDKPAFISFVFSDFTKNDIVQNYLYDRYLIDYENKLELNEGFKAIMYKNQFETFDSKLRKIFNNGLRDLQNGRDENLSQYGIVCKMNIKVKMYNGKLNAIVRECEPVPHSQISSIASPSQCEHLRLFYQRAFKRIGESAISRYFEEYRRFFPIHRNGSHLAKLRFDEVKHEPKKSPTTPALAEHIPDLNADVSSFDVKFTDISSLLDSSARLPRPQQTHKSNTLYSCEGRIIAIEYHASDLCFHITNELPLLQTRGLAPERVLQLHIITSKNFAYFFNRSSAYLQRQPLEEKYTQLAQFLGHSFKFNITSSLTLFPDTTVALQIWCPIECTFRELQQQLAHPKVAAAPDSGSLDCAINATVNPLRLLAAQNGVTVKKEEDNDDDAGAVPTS
# T2: Cdc13-L91R (Saccharomyces cerevisiae, UniProt P32797 1-924, L91R)
# T2 sequence: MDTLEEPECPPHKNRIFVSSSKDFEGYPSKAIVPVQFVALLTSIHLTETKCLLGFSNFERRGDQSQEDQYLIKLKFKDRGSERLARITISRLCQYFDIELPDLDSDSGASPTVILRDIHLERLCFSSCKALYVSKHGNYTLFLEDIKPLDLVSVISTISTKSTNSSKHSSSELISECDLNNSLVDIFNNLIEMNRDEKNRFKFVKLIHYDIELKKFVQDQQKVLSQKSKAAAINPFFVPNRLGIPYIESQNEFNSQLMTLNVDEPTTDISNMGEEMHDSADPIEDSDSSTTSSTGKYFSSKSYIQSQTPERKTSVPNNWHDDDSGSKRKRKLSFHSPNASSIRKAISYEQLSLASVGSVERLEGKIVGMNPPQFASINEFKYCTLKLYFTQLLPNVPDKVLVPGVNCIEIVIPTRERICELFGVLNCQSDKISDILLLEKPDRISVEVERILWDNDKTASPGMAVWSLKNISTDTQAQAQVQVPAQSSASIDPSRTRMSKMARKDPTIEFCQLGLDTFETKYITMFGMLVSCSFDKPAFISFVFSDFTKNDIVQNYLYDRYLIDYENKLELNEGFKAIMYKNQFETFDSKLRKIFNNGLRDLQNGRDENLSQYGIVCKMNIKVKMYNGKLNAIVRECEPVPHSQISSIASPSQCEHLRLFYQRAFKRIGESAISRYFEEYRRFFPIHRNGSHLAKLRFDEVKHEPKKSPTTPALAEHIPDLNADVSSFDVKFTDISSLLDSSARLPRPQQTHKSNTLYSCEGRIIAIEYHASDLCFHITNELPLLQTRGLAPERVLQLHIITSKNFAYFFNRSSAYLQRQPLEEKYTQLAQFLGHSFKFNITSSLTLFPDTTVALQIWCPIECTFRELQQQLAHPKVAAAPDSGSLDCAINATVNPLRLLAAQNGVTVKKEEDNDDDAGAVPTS
# Legend:
# [1] = target: the molecule itself; test: mass photometry; Cdc13 alone diluted in PBS, 11.25 nM protein, room temperature
# Cdc13 WT [2] = target: T1, Cdc13 WT; test: mass photometry; one and two dimers per ssDNA; binding buffer; 25 mM HEPES pH 8.0, 50 mM NaOAc, 150 mM NaCl, 7.5 mM MgCl2 (1x DNA-binding buffer); DDE incubation 30 C, 8% native gel; mass photometry at room temperature after 30 C incubation; BLI buffer details not in material; details: protein: recombinant; chain copies: 2
# Cdc13-L91R [3] = target: T2, Cdc13-L91R; test: mass photometry; small population with two monomers per ssDNA; binding buffer; 25 mM HEPES pH 8.0, 50 mM NaOAc, 150 mM NaCl, 7.5 mM MgCl2 (1x DNA-binding buffer); DDE incubation 30 C, 8% native gel; mass photometry at room temperature after 30 C incubation; BLI buffer details not in material; details: protein: recombinant
# Cdc13 WT [4] = target: T1, Cdc13 WT; test: competition EMSA (DDE assay); EC50 for displacing 2 nM prebound IR800-Tel30G; 3.75 nM dimer; 30 C; value introduced 'as reported (9)', assay also run here; 25 mM HEPES pH 8.0, 50 mM NaOAc, 150 mM NaCl, 7.5 mM MgCl2 (1x DNA-binding buffer); DDE incubation 30 C, 8% native gel; mass photometry at room temperature after 30 C incubation; BLI buffer details not in material; details: protein: recombinant; chain copies: 2; label: 5' IRDye700
# Cdc13-L91R [5] = target: T2, Cdc13-L91R; test: competition EMSA (DDE assay); EC50 for displacing 2 nM prebound IR800-Tel30G; 3.75 nM monomer; 30 C; 25 mM HEPES pH 8.0, 50 mM NaOAc, 150 mM NaCl, 7.5 mM MgCl2 (1x DNA-binding buffer); DDE incubation 30 C, 8% native gel; mass photometry at room temperature after 30 C incubation; BLI buffer details not in material; details: protein: recombinant; label: 5' IRDye700
binder,measurement,setting,value
"Cdc13 (wild type, recombinant) (natural protein, S. cerevisiae, UniProt P32797 1-924, looked up, called full-length WT Cdc13 in the text; The vector encodes a 5'-SUMO-His6 tag and a 3'-FLAG tag for purification; The monomer mass seen was ~105 kDa; also called WT Cdc13) MDTLEEPECPPHKNRIFVSSSKDFEGYPSKAIVPVQFVALLTSIHLTETKCLLGFSNFERRGDQSQEDQYLIKLKFKDRGSERLARITISLLCQYFDIELPDLDSDSGASPTVILRDIHLERLCFSSCKALYVSKHGNYTLFLEDIKPLDLVSVISTISTKSTNSSKHSSSELISECDLNNSLVDIFNNLIEMNRDEKNRFKFVKLIHYDIELKKFVQDQQKVLSQKSKAAAINPFFVPNRLGIPYIESQNEFNSQLMTLNVDEPTTDISNMGEEMHDSADPIEDSDSSTTSSTGKYFSSKSYIQSQTPERKTSVPNNWHDDDSGSKRKRKLSFHSPNASSIRKAISYEQLSLASVGSVERLEGKIVGMNPPQFASINEFKYCTLKLYFTQLLPNVPDKVLVPGVNCIEIVIPTRERICELFGVLNCQSDKISDILLLEKPDRISVEVERILWDNDKTASPGMAVWSLKNISTDTQAQAQVQVPAQSSASIDPSRTRMSKMARKDPTIEFCQLGLDTFETKYITMFGMLVSCSFDKPAFISFVFSDFTKNDIVQNYLYDRYLIDYENKLELNEGFKAIMYKNQFETFDSKLRKIFNNGLRDLQNGRDENLSQYGIVCKMNIKVKMYNGKLNAIVRECEPVPHSQISSIASPSQCEHLRLFYQRAFKRIGESAISRYFEEYRRFFPIHRNGSHLAKLRFDEVKHEPKKSPTTPALAEHIPDLNADVSSFDVKFTDISSLLDSSARLPRPQQTHKSNTLYSCEGRIIAIEYHASDLCFHITNELPLLQTRGLAPERVLQLHIITSKNFAYFFNRSSAYLQRQPLEEKYTQLAQFLGHSFKFNITSSLTLFPDTTVALQIWCPIECTFRELQQQLAHPKVAAAPDSGSLDCAINATVNPLRLLAAQNGVTVKKEEDNDDDAGAVPTS",stoichiometry N,[1],2
GTGTGGGTGTGGTGTGGGTGTGGTGTGGGTGTGTGGGTGTGGTGTGGGTG (ssDNA) [Tel50G],binding result,Cdc13 WT [2],binds
same,binding result,Cdc13-L91R [3],binds
CGCCATGCTGATCCGTGTGGTGTGTGTGGG (ssDNA) [IR700-Tel30G],IC50,Cdc13 WT [4],0.89 nM
same,IC50,Cdc13-L91R [5],31.6 nM
